The target in test [1] is T1, LAMP1::histag (human, UniProt P11279 29-382).
T1 construct: extracellular domain without signal peptide, C-terminal 6 His tag, made in HEK293 cells; also called recombinant human LAMP1; human LAMP1 (29-382)
T1 sequence: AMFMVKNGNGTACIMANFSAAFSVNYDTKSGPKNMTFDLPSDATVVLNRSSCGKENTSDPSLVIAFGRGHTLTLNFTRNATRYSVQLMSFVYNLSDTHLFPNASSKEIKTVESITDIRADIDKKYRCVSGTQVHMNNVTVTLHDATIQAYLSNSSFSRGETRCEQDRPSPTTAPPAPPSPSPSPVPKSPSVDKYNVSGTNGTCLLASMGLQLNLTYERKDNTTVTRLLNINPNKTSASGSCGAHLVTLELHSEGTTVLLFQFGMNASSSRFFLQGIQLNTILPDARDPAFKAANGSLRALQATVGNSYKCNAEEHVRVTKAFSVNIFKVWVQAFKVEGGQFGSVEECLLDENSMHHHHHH
Kind of test: SPR (BIAcore 2000), mAb captured by anti-Fc, LAMP1 injected 1 to 256 nM. The method, then:
The binding kinetics of the murine, chimer or humanized anti-LAMP1 mAbs were determined by surface plasmon resonance assay using a BIAcore 2000 (BIAcore Inc., Uppsala, N.J.). […] A mouse anti-αhuman Fc IgG1 (BIAcore #BR-1008-39) and rabbit anti-αmurine Fc IgG1 (BIAcore #BR-1008-38) (50 μg/mL in […], pH5) were immobilized on the activated chips in all flow cells. The immobilization was carried out at a flow rate of 10 μL/min up to saturation. The chip was then blocked by injection of 70 μL of ethanolamine-HCl, pH 8.5, followed by one wash with 3 M MgCl₂ for anti-αhuman Fc IgG1 and one wash with 10 mM Glycine-HCl pH 1.7 for anti-αmurine Fc IgG1. To measure the binding of anti-LAMP1 mAbs to LAMP1, antibodies were used at 1-5 μg/mL in BIAcore running buffer (HBS-EP). […] Following completion of the injection phase, dissociation was monitored in a BIAcore running buffer at the same flow rate for 600 sec. […] Individual sensorgrams were analyzed using BIAevaluation software.

Test [2] deals with T2, recombinant human LAMP2 with a C-terminal 10 His-tag (human, UniProt P13473 29-375).
T2 construct: bought; also called soluble LAMP2 protein (R&D Systems 6228-LM)
Kind of test: ELISA on coated LAMP2. As for the experimental part:
LAMP2 is the closest member of the LAMP family with 35% sequence identity to LAMP1. […] Anti-LAMP1 antibodies were added to the plates and detected by using rabbit anti-mouse IgG conjugated with horseradish peroxidase (Sigma; #A9044). Antibody binding was visualized by adding TMB-H₂O₂ buffer and read at a wavelength of 450 nm.
For orientation: An ELISA detects its analyte on a solid surface through an enzyme-linked reagent.

Test [3] deals with T3, hLAMP1_ΔGYQTI (human, UniProt P11279 29-412).
T3 construct: also called pXL5626
T3 sequence: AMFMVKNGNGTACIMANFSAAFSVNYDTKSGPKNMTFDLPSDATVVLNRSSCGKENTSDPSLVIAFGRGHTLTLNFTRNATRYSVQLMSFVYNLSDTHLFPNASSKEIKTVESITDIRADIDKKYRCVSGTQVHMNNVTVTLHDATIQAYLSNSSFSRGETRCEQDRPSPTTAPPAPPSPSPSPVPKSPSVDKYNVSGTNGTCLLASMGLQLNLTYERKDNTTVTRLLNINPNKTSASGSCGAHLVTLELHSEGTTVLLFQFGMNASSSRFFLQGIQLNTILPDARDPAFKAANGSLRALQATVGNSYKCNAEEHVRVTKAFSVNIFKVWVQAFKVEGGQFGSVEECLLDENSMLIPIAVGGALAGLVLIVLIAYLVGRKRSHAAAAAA
Kind of test: flow cytometry, transfected 293-F cells. In general terms: In flow cytometry, cells or beads pass a laser one at a time.

Test [4] concerns the target T4, LAMP1_mseq2_ΔGYQTI (human; mouse).
T4 construct: on cells; also called pXL6013
Kind of test: flow cytometry, transfected 293-F cells.

For test [5], the target named is T5, LAMP1_mseq3_ΔGYQTI (human; mouse).
T5 construct: on cells; also called pXL6014
Kind of test: flow cytometry, transfected 293-F cells.

Test [6] addresses T6, LAMP1_mseq5_ΔGYQTI (human; mouse).
T6 construct: on cells; also called pXL6017
Kind of test: flow cytometry, transfected 293-F cells.

Test [7] concerns the target T7, mLAMP1_hseq6-11_ΔGYQTI (mouse; human, UniProt P11438 25-369).
T7 construct: on cells; also called pXL6041; not shown: murine transmembrane domain and cytoplasmic tail with GYQTI replaced by 5 Ala
T7 chain: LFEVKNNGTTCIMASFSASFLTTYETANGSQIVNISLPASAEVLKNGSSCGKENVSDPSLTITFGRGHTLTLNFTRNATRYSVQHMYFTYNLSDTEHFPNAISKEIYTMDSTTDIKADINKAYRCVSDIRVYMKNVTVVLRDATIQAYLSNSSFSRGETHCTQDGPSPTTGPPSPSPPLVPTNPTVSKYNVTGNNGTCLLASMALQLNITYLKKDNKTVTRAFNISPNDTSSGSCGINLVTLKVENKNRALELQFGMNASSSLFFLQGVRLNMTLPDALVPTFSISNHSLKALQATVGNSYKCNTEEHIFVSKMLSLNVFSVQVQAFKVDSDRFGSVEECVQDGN
Kind of test: flow cytometry, transfected 293-F cells, experiment 1.

Test [8] concerns the target T8, mLAMP1_hseq6_ΔGYQTI (mouse; human, UniProt P11438 25-369).
T8 construct: on cells; numbering read as for pXL6041; also called pXL6047; not shown: murine transmembrane domain and cytoplasmic tail with GYQTI replaced by 5 Ala
T8 chain: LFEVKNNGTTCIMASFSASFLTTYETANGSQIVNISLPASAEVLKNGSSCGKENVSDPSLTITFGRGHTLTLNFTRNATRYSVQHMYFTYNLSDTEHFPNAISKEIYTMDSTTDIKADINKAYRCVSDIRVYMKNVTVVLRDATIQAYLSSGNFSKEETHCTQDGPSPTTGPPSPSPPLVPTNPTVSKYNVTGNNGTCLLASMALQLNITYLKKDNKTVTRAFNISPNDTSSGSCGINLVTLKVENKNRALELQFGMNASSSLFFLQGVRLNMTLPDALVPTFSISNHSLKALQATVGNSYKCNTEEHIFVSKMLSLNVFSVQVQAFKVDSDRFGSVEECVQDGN
The description is as above.

Results on four molecules are retold here after US20180142032A1 (Sanofi, published 2018).

Broadly, the Kd is the concentration at which binding is half-saturated.

T2 sequence (P13473 other isoform, or with tags, fused parts or gaps): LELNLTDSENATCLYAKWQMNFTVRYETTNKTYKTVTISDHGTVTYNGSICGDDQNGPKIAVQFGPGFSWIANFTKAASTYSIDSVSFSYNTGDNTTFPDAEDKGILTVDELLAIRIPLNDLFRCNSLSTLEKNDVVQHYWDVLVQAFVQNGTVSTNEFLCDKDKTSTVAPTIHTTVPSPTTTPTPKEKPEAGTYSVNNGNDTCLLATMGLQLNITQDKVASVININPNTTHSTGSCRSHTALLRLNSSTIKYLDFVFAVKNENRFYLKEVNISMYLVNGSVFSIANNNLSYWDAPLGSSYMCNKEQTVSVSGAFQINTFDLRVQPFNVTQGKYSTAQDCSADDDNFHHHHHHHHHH

B1: huMAb1_1 (antibody, human IgG1, kappa)
heavy: not shown
light: DIQMTQSPSSLSASVGDRVTITCKASQDIDRYMAWYQDKPGKAPRLLIHDTSTLQSGVPSRFSGSGSGRDYTLTISNLEPEDFATYYCLQYDNLWTFGGGTKVEIKRTVAAPSVFIFPPSDEQLKSGTASVVCLLNNFYPREAKVQWKVDNALQSGNSQESVTEQDSKDSTYSLSSTLTLSKADYEKHKVYACEVTHQGLSSPVTKSFNRGEC
notes: humanized, VH1-huIgG1 and VL1-huCk
For B1, in test [1], the Kd came out at 8.2 nM.

B2: MAb2 (antibody, mouse IgG1, kappa)
heavy: QVQLQQSAAELARPGASVKMSCKASGYTFTSYTMHWVKQRPGQGLEWIGYFNPSSGYPEYNQKFKDKTTLTADKSSNTAFIQLNSLTSEDSAVYYCSRGYYYGSRGYALDFWGQGASVTVSSAKTTPPSVYPLAPGSAAQTNSMVTLGCLVKGYFPEPVTVTWNSGSLSSGVHTFPAVLQSDLYTLSSSVTVPSSTWPSETVTCNVAHPASSTKVDKKIVPRDCGCKPCICTVPEVSSVFIFPPKPKDVLTITLTPKVTCVVVDISKDDPEVQFSWFVDDVEVHTAQTQPREEQFNSTFRSVSELPIMHQDWLNGKEFKCRVNSAAFPAPIEKTISKTKGRPKAPQVYTIPPPKEQMAKDKVSLTCMITDFFPEDITVEWQWNGQPAENYKNTQPIMDTDGSYFVYSKLNVQKSNWEAGNTFTCSVLHEGLHNHHTEKSLSHSPGK
light: NIVLTQSPVSLAVSLGQRATISCRASESVDINGNTFMHWYQQKPGQSPKLVIYAASNIESGVPARFSGSGSSTDFTFTIDPVEADDVATYYCQQNIEDPWTFGGGTKVEIKRADAAPTVSIFPPSSEQLTSGGASVVCFLNNFYPKDINVKWKIDGSERQNGVLNSWTDQDSKDSTYSMSSTLTLTKDEYERHNSYTCEATHKTSTSPIVKSFNRNEC
notes: murine monoclonal IgG, kappa, from hybridoma; also called murine MAb2
Regarding B2, the binding result in test [2], in test [7] and in test [8] was “no binding” each time. Also, the mean fluorescence was 757 in test [3]; 694 in test [4]; 694 in test [5]; 629 in test [6]; 28 in test [7]; 25 in test [8]. The molecule further came in with a Kd in test [1] of 63.5 nM.

B3: MAb3 (antibody, V domains shown)
VH: QIQLVQSGPELKKPGETVKISCKASGYIFTNYGMNWVKQAPGKGLKWMGWINTYTGESRYADDFKGRFALSLETSASTAYLQINNLENEDMATYFCAREDYYGNSPWFFDVWGAGTTVTVSS
VL: DIQMTQTTSSLSASLGDRVTISCNASQGINKYLNWYQQKPDGTVKLLIYYTSTLHSGVPSRFSGSGSGTDYSLTINNLEPEDIATYYCQQYTKLPFTFGSGTKLEIK
notes: murine monoclonal IgG, kappa, from hybridoma; also called murine MAb3
Turning to B3, the binding result in test [2] is reported as “no binding”. The mean fluorescence in test [3] was determined as 749; in test [4], 803; in test [5] it was 674; in test [6], 721. Binding in test [1] was put at a Kd of 4.7 nM.

B4: MAb1 (antibody, mouse IgG2a, kappa)
heavy: QVQLQQSGAELVKPGASVKMSCKASGYIFTNYNIHWVKKSPGQGLEWIGAIYPGNGDAPYSQKFKDKATLTADKSSSTTYMQLSRLTSEDSAVYYCVRANWDVAFAYWGQGTLVSVSAAKTTAPSVYPLAPVCGDTTGSSVTLGCLVKGYFPEPVTLTWNSGSLSSGVHTFPAVLQSDLYTLSSSVTVTSSTWPSQSITCNVAHPASSTKVDKKIEPRGPTIKPCPPCKCPAPNLLGGPSVFIFPPKIKDVLMISLSPIVTCVVVDVSEDDPDVQISWFVNNVEVHTAQTQTHREDYNSTLRVVSALPIQHQDWMSGKEFKCKVNNKDLPAPIERTISKPKGSVRAPQVYVLPPPEEEMTKKQVTLTCMVTDFMPEDIYVEWTNNGKTELNYKNTEPVLDSDGSYFMYSKLRVEKKNWVERNSYSCSVVHEGLHNHHTTKSFSRTPGK
light: DIQMTQSPPSLSASLGGKVTITCKASQDIDRYMAWYQDKPGKGPRLLIHDTSTLQPGIPSRFSGSGSGRDYSFSISNLEPEDIATYYCLQYDNLWTFGGGTKLEIKRADAAPTVSIFPPSSEQLTSGGASVVCFLNNFYPKDINVKWKIDGSERQNGVLNSWTDQDSKDSTYSMSSTLTLTKDEYERHNSYTCEATHKTSTSPIVKSFNRNEC
notes: murine monoclonal IgG, kappa, from hybridoma; also called murine MAb1
Turning to B4, the binding result in test [2] and in test [8] was “no binding” throughout. In addition, the mean fluorescence was 914 in test [3]; 990 in test [4]; 888 in test [5]; 846 in test [6]; 680 in test [7]; 7 in test [8]. The molecule further gave a Kd in test [1] of 4.8 nM.
